{"source": "patent US20030040012A1", "about": "(published 2003)", "key": {"NpwBP": {"target": "T1, NpwBP (Homo sapiens (Human), UniProt Q9Y2W2 1-641)", "T1 construct": "Expressed inside COS7 cells, without an added protein A because it has its own nuclear localization signal", "T1 sequence": "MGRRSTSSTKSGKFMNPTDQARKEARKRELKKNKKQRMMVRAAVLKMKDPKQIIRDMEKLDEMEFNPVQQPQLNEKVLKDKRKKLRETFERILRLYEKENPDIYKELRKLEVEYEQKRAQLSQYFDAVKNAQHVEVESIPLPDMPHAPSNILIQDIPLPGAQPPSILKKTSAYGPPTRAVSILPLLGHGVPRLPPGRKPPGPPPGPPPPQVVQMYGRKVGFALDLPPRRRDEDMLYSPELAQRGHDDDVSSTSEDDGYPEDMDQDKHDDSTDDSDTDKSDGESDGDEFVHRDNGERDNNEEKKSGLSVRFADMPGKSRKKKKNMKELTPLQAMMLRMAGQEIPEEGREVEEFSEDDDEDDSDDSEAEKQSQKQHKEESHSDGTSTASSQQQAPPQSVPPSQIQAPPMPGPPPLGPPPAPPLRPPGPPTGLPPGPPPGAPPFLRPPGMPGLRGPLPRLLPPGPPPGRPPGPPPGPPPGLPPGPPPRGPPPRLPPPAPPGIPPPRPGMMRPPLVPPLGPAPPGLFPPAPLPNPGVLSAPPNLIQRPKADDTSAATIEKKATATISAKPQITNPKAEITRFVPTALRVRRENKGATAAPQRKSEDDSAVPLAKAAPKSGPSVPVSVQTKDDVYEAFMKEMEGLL", "test": "competition by co-expression in COS7 cells, GFP localization"}, "[1]": {"target": "T2, fusion protein NpwBP(P2)-GFP (UniProt P42212 1-238 = GFP, limits assumed)", "T2 construct": "Expressed inside COS7 cells from pKA1-NpwBP(P2)-GFP; also called NpwBP-GFP", "test": "co-expression in COS7 cells, fluorescence microscopy of GFP localization", "procedure": "After the medium was removed, the cell sur were washed with a phosphate buffer solution (PBS), and then further washed with a 50 mM Tris-HCl (pH 7.5)-containing DMEM. To these cells, added was a suspension comprising 1 μl of a plasmid suspension, 0.6 ml of DMEM and 3 μl of […]™ (from IBF), and incubated in the presence of 5% CO₂ at 37° C. for 12 hours. Then, the cells were washed with PBS, and fixed with 4% peraformaldehyde-containing PBS at room temperature for 10 minutes. The thus-fixed cells were washed with PBS, then treated with 0.2% Triton X-100, and thereafter blocked with 5% milk PBS. […]\nFirst, pKA1-NpwBP(P1)-GFP or pKA1-NpwBP(P2)-GFP was singly introduced into COS7 cells, and the localization of these fusion proteins in the cells was checked through fluorescence microscopy based on the green fluorescence of GFP as the index thereof. […] Next, along with these NpwBP-GFP fusion protein expression vectors, an Npw38 expression vector, pKA1-Npw38 was introduced into COS7 cells, and the green fluorescence was localized in the nucleus of each cell (FIG. 3b). […] On the other hand, when Npw38(W52A) (A. Komuro et al., Nucl. Acids Res., 27: 1957-1965, 1999), which is a WW domain variant of Npw38, was expressed in the cells in place of HA-Npw38, or when GFP was expressed in the cells in place of NpwBP-GFP, no intranuclear localization of the green fluorescence was found."}}, "data": [{"binder": "fusion protein HA-Npw38 (other, All are treated as the same molecule; not shown: HA tag (protein A of fusion A-X)) MPLPVALQTRLAKRGILKHLEPEPEEEIIAEDYDDDPVDYEATRLEGLPPSWYKVFDPSCGLPYYWNADTDLVSWLSPHDPNSVVTKSAKKLRSSNADAEEKLDRSHDKSDRGHDKSDRSHEKLDRGHDKSDRGHDKSDRDRERGYDKVDRERERDRERDRDRGYDKADREEGKERRHHRREELAPYPKSKKAVSRKDEELDPMDPSSYSDAPRGTWSTGLPKRNEAKTGADTTAAGPLFQQRPYPSPGAVLRANAEASRTKQQD", "values": [{"measurement": "binding result", "setting": "NpwBP", "result": "binds"}, {"measurement": "binding result", "setting": "[1]", "result": "binds"}]}, {"binder": "Npw38(W52A), a WW domain variant of Npw38 (other, Expressed in COS7 cells in place of HA-Npw38) MPLPVALQTRLAKRGILKHLEPEPEEEIIAEDYDDDPVDYEATRLEGLPPSAYKVFDPSCGLPYYWNADTDLVSWLSPHDPNSVVTKSAKKLRSSNADAEEKLDRSHDKSDRGHDKSDRSHEKLDRGHDKSDRGHDKSDRDRERGYDKVDRERERDRERDRDRGYDKADREEGKERRHHRREELAPYPKSKKAVSRKDEELDPMDPSSYSDAPRGTWSTGLPKRNEAKTGADTTAAGPLFQQRPYPSPGAVLRANAEASRTKQQD", "values": [{"measurement": "binding result", "setting": "[1]", "result": "no binding"}]}]}
